Measurements from the supplement of paper PMC9112550, “Optimization of the antimicrobial peptide Bac7 by deep mutational scanning” (BMC Biology, 2022).

Tested on: Escherichia coli TOP10
Test: shrunken log2 fold change of peptide-encoding DNA abundance (4.5 h post-induction vs induction); higher = less antimicrobial activity (less host growth inhibition)
Settings: time post-induction: 4.5 h; library: site-saturation at positions 5, 18, 19, 20
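Further: peptides expressed intracellularly from a pBAD plasmid library in pooled LB shake-flask culture, induced with 0.3% L-arabinose, DNA abundance read by NGS, three biological replicates, DESeq2 with apeglm shrinkage.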

| Sequence | shrunken log2 fold change |
| --- | --- |
| RRIRPRPPRLPRPRPRPCEAPRP | 0.0756 |
| RRIRQRPPRLPRPRPRPRYTPRP | -0.126 |
| RRIRSRPPRLPRPRPRPMCAPRP | 0.29 |
| RRIRARPPRLPRPRPRPETRPRP | 0.662 |
| RRIRNRPPRLPRPRPRPIFEPRP | 0.0552 |
| RRIRIRPPRLPRPRPRPDFYPRP | -0.554 |
| RRIRKRPPRLPRPRPRPRWGPRP | 0.358 |
| RRIRKRPPRLPRPRPRPTRIPRP | 0.312 |
| RRIRDRPPRLPRPRPRPGKGPRP | 0.0189 |
| RRIRDRPPRLPRPRPRPTKCPRP | -0.0929 |
| RRIRPRPPRLPRPRPRPAIIPRP | -0.112 |
| RRIRMRPPRLPRPRPRPNIDPRP | -0.764 |
| RRIRPRPPRLPRPRPRPGRFPRP | 0.434 |
| RRIRQRPPRLPRPRPRPGYKPRP | -0.0992 |
| RRIRMRPPRLPRPRPRPRQTPRP | 0.0189 |
| RRIRNRPPRLPRPRPRPTRSPRP | -0.177 |
| RRIRRRPPRLPRPRPRPMDYPRP | 0.0716 |
| RRIRIRPPRLPRPRPRPQWAPRP | 0.0405 |
| RRIRVRPPRLPRPRPRPEYGPRP | -0.00905 |
| RRIRNRPPRLPRPRPRPGEVPRP | -0.121 |
| RRIRRRPPRLPRPRPRPFAWPRP | 0.189 |
| RRIRDRPPRLPRPRPRPYNFPRP | -0.0811 |
| RRIRERPPRLPRPRPRPTKMPRP | -0.22 |
| RRIRARPPRLPRPRPRPYRAPRP | -0.141 |
| RRIRDRPPRLPRPRPRPPEWPRP | 0.557 |

| Sequence | shrunken log2 fold change |
| --- | --- |
| RRIRMRPPRLPRPRPRPMFYPRP | -0.127 |
| RRIRMRPPRLPRPRPRPSNFPRP | -0.192 |
| RRIRPRPPRLPRPRPRPPTTPRP | 0.327 |
| RRIRCRPPRLPRPRPRPMHMPRP | -0.14 |
| RRIRQRPPRLPRPRPRPICIPRP | -0.0334 |
| RRIRHRPPRLPRPRPRPMDDPRP | -0.118 |
| RRIRFRPPRLPRPRPRPRMWPRP | 0.127 |
| RRIRGRPPRLPRPRPRPLEAPRP | 1.44 |
| RRIRQRPPRLPRPRPRPVTDPRP | 0.05 |
| RRIRVRPPRLPRPRPRPNIMPRP | -0.512 |
| RRIRNRPPRLPRPRPRPARTPRP | 0.139 |
| RRIRHRPPRLPRPRPRPWLNPRP | -0.0017 |
| RRIRSRPPRLPRPRPRPIQYPRP | -0.383 |
| RRIRIRPPRLPRPRPRPMHAPRP | 0.325 |
| RRIRQRPPRLPRPRPRPRLQPRP | 0.501 |
| RRIRPRPPRLPRPRPRPHHFPRP | -0.0294 |
| RRIRQRPPRLPRPRPRPPPGPRP | 0.751 |
| RRIRNRPPRLPRPRPRPCRQPRP | -0.065 |
| RRIRDRPPRLPRPRPRPTNGPRP | -0.0673 |
| RRIRSRPPRLPRPRPRPEICPRP | 0.0531 |
| RRIRIRPPRLPRPRPRPYGAPRP | -0.199 |
| RRIRRRPPRLPRPRPRPMFGPRP | -0.0512 |
| RRIRLRPPRLPRPRPRPMEAPRP | -0.00122 |
| RRIRTRPPRLPRPRPRPYVHPRP | -0.75 |
| RRIRNRPPRLPRPRPRPCHGPRP | -0.00208 |

| Sequence | shrunken log2 fold change |
| --- | --- |
| RRIRVRPPRLPRPRPRPRGFPRP | 0.26 |
| RRIRNRPPRLPRPRPRPRYGPRP | -0.0289 |
| RRIRIRPPRLPRPRPRPWMQPRP | -0.182 |
| RRIRGRPPRLPRPRPRPPRVPRP | 1.15 |
| RRIRLRPPRLPRPRPRPFTYPRP | -0.0906 |
| RRIRVRPPRLPRPRPRPSPAPRP | 0.34 |
| RRIRQRPPRLPRPRPRPEPGPRP | 0.485 |
| RRIRPRPPRLPRPRPRPTLMPRP | 0.227 |
| RRIRNRPPRLPRPRPRPTSNPRP | -0.615 |
| RRIRTRPPRLPRPRPRPSRDPRP | -0.139 |
| RRIRARPPRLPRPRPRPVDIPRP | 0.135 |
| RRIRARPPRLPRPRPRPHNWPRP | 0.129 |
| RRIRYRPPRLPRPRPRPFFTPRP | -0.675 |
| RRIRGRPPRLPRPRPRPSWSPRP | 0.425 |
| RRIRHRPPRLPRPRPRPCTHPRP | -0.192 |
| RRIRKRPPRLPRPRPRPHIMPRP | -0.0414 |
| RRIRSRPPRLPRPRPRPMQDPRP | 0.125 |
| RRIRVRPPRLPRPRPRPLLKPRP | 0.0167 |
| RRIRERPPRLPRPRPRPIEFPRP | 0.101 |
| RRIRNRPPRLPRPRPRPCGVPRP | -0.00664 |
| RRIRSRPPRLPRPRPRPGPPPRP | 0.46 |
| RRIRHRPPRLPRPRPRPQMSPRP | -0.0899 |
| RRIRWRPPRLPRPRPRPDQHPRP | -0.00431 |
| RRIRPRPPRLPRPRPRPYETPRP | -0.106 |
| RRIRNRPPRLPRPRPRPQSPPRP | -0.0298 |

| Sequence | shrunken log2 fold change |
| --- | --- |
| RRIRDRPPRLPRPRPRPMGEPRP | -6.53e-05 |
| RRIRNRPPRLPRPRPRPYCNPRP | -0.672 |
| RRIRKRPPRLPRPRPRPMLCPRP | -0.0829 |
| RRIRVRPPRLPRPRPRPGCIPRP | -0.0275 |
| RRIRQRPPRLPRPRPRPVCCPRP | 0.161 |
| RRIRARPPRLPRPRPRPMQKPRP | 0.222 |
| RRIRCRPPRLPRPRPRPLYPPRP | -0.729 |
| RRIRLRPPRLPRPRPRPLEWPRP | 0.0509 |
| RRIRPRPPRLPRPRPRPDYLPRP | -0.259 |
| RRIRVRPPRLPRPRPRPEVEPRP | -0.0626 |
| RRIRLRPPRLPRPRPRPHPYPRP | -0.379 |
| RRIRNRPPRLPRPRPRPIMFPRP | -0.0388 |
| RRIRHRPPRLPRPRPRPKWNPRP | -0.206 |
| RRIRTRPPRLPRPRPRPRNFPRP | 0.172 |
| RRIRVRPPRLPRPRPRPQKDPRP | -0.187 |
| RRIRCRPPRLPRPRPRPGWQPRP | 0.331 |
| RRIRLRPPRLPRPRPRPLCRPRP | -0.496 |
| RRIRTRPPRLPRPRPRPWYMPRP | -0.0891 |
| RRIRSRPPRLPRPRPRPYFVPRP | -1.14 |
| RRIRFRPPRLPRPRPRPQLKPRP | -0.0312 |
| RRIRDRPPRLPRPRPRPKMEPRP | -0.00783 |
| RRIRRRPPRLPRPRPRPRVYPRP | 0.335 |
| RRIRTRPPRLPRPRPRPHWHPRP | -0.576 |
| RRIRMRPPRLPRPRPRPVHYPRP | -0.0505 |
| RRIRYRPPRLPRPRPRPPLLPRP | -0.385 |

| Sequence | shrunken log2 fold change |
| --- | --- |
| RRIRCRPPRLPRPRPRPSMCPRP | -0.14 |
| RRIRVRPPRLPRPRPRPFWCPRP | -0.121 |
| RRIRIRPPRLPRPRPRPLKTPRP | 0.0161 |
| RRIRMRPPRLPRPRPRPNSHPRP | -0.451 |
| RRIRRRPPRLPRPRPRPCQSPRP | 0.0448 |
| RRIRCRPPRLPRPRPRPMNIPRP | -0.693 |
| RRIRFRPPRLPRPRPRPYMCPRP | -0.0146 |
| RRIRIRPPRLPRPRPRPVDDPRP | -0.0762 |
| RRIRQRPPRLPRPRPRPRMRPRP | 0.583 |
| RRIRSRPPRLPRPRPRPESWPRP | 0.762 |
| RRIRHRPPRLPRPRPRPGWNPRP | 0.0316 |
| RRIRGRPPRLPRPRPRPWCSPRP | -0.0965 |
| RRIRCRPPRLPRPRPRPERQPRP | -0.00823 |
| RRIRFRPPRLPRPRPRPWQYPRP | 0.0191 |
| RRIRDRPPRLPRPRPRPQDWPRP | 0.324 |
| RRIRQRPPRLPRPRPRPYQTPRP | -0.421 |
| RRIRSRPPRLPRPRPRPIYNPRP | -0.785 |
| RRIRTRPPRLPRPRPRPAVWPRP | 0.556 |
| RRIRTRPPRLPRPRPRPYQLPRP | -0.5 |
| RRIRDRPPRLPRPRPRPNRAPRP | 0.563 |
| RRIRMRPPRLPRPRPRPSNYPRP | -0.078 |
| RRIRGRPPRLPRPRPRPCNYPRP | -0.11 |
| RRIRIRPPRLPRPRPRPIGAPRP | -0.0926 |
| RRIRFRPPRLPRPRPRPESYPRP | -0.0666 |
| RRIRMRPPRLPRPRPRPKLDPRP | 1.7 |

| Sequence | shrunken log2 fold change |
| --- | --- |
| RRIRFRPPRLPRPRPRPSYTPRP | -0.771 |
| RRIRDRPPRLPRPRPRPRKPPRP | 0.39 |
| RRIRARPPRLPRPRPRPFREPRP | -0.14 |
| RRIRSRPPRLPRPRPRPKKWPRP | 0.0341 |
| RRIRHRPPRLPRPRPRPVWVPRP | -0.0634 |
| RRIRPRPPRLPRPRPRPYENPRP | -0.66 |
| RRIRERPPRLPRPRPRPLIPPRP | -0.463 |
| RRIRWRPPRLPRPRPRPVQDPRP | -0.103 |
| RRIRYRPPRLPRPRPRPRMWPRP | 0.0356 |
| RRIRMRPPRLPRPRPRPFEPPRP | 0.174 |
| RRIRFRPPRLPRPRPRPQCPPRP | -0.225 |
| RRIRKRPPRLPRPRPRPCSQPRP | 0.0126 |
| RRIRMRPPRLPRPRPRPRCSPRP | 0.393 |
| RRIRPRPPRLPRPRPRPSEIPRP | -0.261 |
| RRIRERPPRLPRPRPRPCMVPRP | -1.08 |
| RRIRWRPPRLPRPRPRPVRYPRP | 0.00421 |
| RRIRHRPPRLPRPRPRPHDFPRP | -0.0633 |
| RRIRVRPPRLPRPRPRPELLPRP | 0.0724 |
| RRIRRRPPRLPRPRPRPEFPPRP | 0.154 |
| RRIRHRPPRLPRPRPRPLAPPRP | 0.196 |
| RRIRPRPPRLPRPRPRPKHCPRP | -0.0919 |
| RRIRVRPPRLPRPRPRPTMLPRP | -0.205 |
| RRIRARPPRLPRPRPRPPSLPRP | 0.513 |
| RRIRKRPPRLPRPRPRPSREPRP | 0.555 |
| RRIRIRPPRLPRPRPRPSWYPRP | -0.604 |
